Source: patent US20230143604A1, “QW DOSING OF GIP RECEPTOR AGONIST PEPTIDE COMPOUNDS AND USES THEREOF” (TAKEDA PHARMACEUTICAL COMPANY LIMITED, priority 2020, published 2023)
Starred links: 1 amine or outer side, 2 acyl side, 3 side chain; linkers in the order of their positions; H or OH if unused. Non-standard residues stand in square brackets, D forms with d. Groups on a side chain read outwards from the residue. No end group written: not given here. *: point of attachment. C18 diacid = O=C(O)CCCCCCCCCCCCCCCCC(=O)*; C17 diacid = O=C(O)CCCCCCCCCCCCCCCC(=O)*; γGlu = O=C(O)[C@H](CCC(=O)[*:2])N[*:1]; NMeY = CN[C@@H](Cc1ccc(O)cc1)C(=O)O; AEEA = NCCOCCOCC(=O)O; Aib = CC(C)(N)C(=O)O

T1: full-length human GIPR with an N-terminal FLAG tag (human, UniProt P48546 22-466)
T1 sequence (looked up): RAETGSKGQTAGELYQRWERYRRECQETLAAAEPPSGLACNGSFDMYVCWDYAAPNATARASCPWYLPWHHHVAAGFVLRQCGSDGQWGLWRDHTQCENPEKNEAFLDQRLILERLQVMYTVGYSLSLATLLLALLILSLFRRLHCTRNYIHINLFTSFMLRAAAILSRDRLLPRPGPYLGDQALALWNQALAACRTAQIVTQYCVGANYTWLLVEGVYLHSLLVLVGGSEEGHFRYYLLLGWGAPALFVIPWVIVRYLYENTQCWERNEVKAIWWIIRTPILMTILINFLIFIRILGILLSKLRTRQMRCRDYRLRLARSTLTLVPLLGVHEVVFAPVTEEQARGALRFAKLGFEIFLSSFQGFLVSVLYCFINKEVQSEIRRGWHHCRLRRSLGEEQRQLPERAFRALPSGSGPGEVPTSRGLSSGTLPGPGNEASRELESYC


Experiments:
[1] = target: T1, full-length human GIPR with an …; assay: cell-based or functional assay
[2] = target: full-length human GLP-1R with an N-terminal FLAG tag (human, UniProt P43220 24-463); assay: cell-based or functional assay

Binder	Human GIPR cAMP EC50, HEK293T [1]	Human GLP1R cAMP EC50, HEK293T [2]
Y[Aib]EGTFISDYSIALDKAAQ[Aib]K([AEEA-AEEA-γGlu-γGlu-C18 diacid])FVEWLLAQRG-OH [Compound No. 154]	0.0003 nM	8.91 nM
YXEGTFISDYSIAXDRXAQXDFVEWLLAQRG (N-terminus H; Aib at 2,17,20; Lys(G5-C18 diacid) at 14; C-terminal OH) [Compound No. 144]	0.0009 nM	15.1 nM
YXEGTFISDYSIXXDRAAQADFVEWLLAQRG (N-terminus H; Aib at 2,13; Lys(G5-C18 diacid) at 14; C-terminal OH) [Compound No. 148]	0.0004 nM	8.71 nM
YXEGTFISDYSIXXDSXAQXDFVNWLLAQRG (N-terminus H; Aib at 2,13,17,20; Lys(G5-C18 diacid) at 14; C-terminal OH) [Compound No. 150]	0.0004 nM	13.5 nM
YXEGTFISDYSIAXDRXAQADFVEWLLAQRG (N-terminus H; Aib at 2,17; Lys(G5-C18 diacid) at 14; C-terminal OH) [Compound No. 149]	0.0007 nM	15.8 nM
YXEGTFISDYSIXXDRAAQXDFVEWLLAQRG (N-terminus H; Aib at 2,13,20; Lys(G5-C18 diacid) at 14; C-terminal OH) [Compound No. 145]	0.0018 nM	9.33 nM
YXEGTFISDYSIXXDRXAQRDFVEWLLAQRG (N-terminus H; Aib at 2,13,17; Lys(G5-C18 diacid) at 14; C-terminal OH) [Compound No. 147]	0.0008 nM	1.66 nM
YXEGTFISDYSIXXDRXAQADFVEWLLAQRG (N-terminus H; Aib at 2,13,17; Lys(G5-C18 diacid) at 14; C-terminal OH) [Compound No. 146]	0.0008 nM	7.08 nM
YXEGTFISDYSIXXDSAAQXDFVNWLLAQRG (N-terminus H; Aib at 2,13,20; Lys(G5-C18 diacid) at 14; C-terminal OH) [Compound No. 151]	0.0003 nM	5.01 nM
YXEGTFISDYSIXXDSXAQADFVNWLLAQRG (N-terminus H; Aib at 2,13,17; Lys(G5-C18 diacid) at 14; C-terminal OH) [Compound No. 152]	0.0006 nM	33.1 nM
[NMeY][Aib]EGTFISDYSIALDR[Aib]HQ[Aib]NFVNWLLAQK([AEEA-AEEA-γGlu-C18 diacid])PSSGAPPPS-NH2 [Compound No. 1]	0.0004 nM	10.5 nM
[NMeY][Aib]EGTFISDYSI[Aib]K([AEEA-AEEA-γGlu-γGlu-C17 diacid])DR[Aib]AQ[Aib]NFVNWLLAQRPSSGAPPPS-NH2 [Compound No. 14]	0.0003 nM	172 nM
Y[Aib]EGTFISDYSIALDKIAQ[Aib]K([AEEA-AEEA-γGlu-γGlu-C18 diacid])FVEWLLAQRG-OH [Compound No. 153]	0.0003 nM	6.76 nM
